Source: US20030148957A1 (PROCTER AND GAMBLE, published 2003)
Ends that are not written are not given here.

Biological target: T1, CRF2R
T1 sequence (Q13324 whole entry, species assumed, looked up): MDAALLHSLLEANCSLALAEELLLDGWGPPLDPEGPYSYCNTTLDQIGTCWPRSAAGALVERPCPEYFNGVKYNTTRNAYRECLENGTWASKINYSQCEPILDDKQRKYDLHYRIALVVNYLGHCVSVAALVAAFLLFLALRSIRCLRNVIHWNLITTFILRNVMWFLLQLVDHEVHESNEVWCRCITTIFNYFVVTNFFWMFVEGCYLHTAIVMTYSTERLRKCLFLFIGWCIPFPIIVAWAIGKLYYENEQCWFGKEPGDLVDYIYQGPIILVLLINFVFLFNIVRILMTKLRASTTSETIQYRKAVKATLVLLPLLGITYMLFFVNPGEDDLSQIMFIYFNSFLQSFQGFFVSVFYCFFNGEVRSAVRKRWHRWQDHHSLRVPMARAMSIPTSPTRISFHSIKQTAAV
Assay: cell-based or functional assay

CRF2R (Emax %): 100%
Binder: IVLSLDVPIGLLQELLEMARAEQLAQQAHSNRKLMEII-NH2 [SEQ ID NO 1]
